Data from publication PMC7913765, “Dynamics of the HD regulatory subdomain of PARP-1; substrate access and allostery in PARP activation and inhibition”.

What was measured:
Conditions in all cases: protein: recombinant; tags: N-terminal 6His-6Lys tag, TEV site; label: biotin (internal dT, streptavidin chip); dumbbell of two hairpins with T7 loops, nick between the 5' and 3' ends; stems 13 and 12 bp
PARP-1 full-length [1] = biological target: T1, PARP-1 full-length (human, UniProt P09874 2-1014); assay: SPR; no inhibitor; SPR (Biacore 8K): 20 mM HEPES, 150 mM NaCl, 1 mM TCEP, 0.05% Tween-20, 1% (v/v) (component not given), pH not stated, 25 C; PARP-1 0.078-20 nM; n = 6
PARP-1 full-length [2] = biological target: T1, PARP-1 full-length; assay: SPR; EB-47 (100 mM [sic]); SPR (Biacore 8K): 20 mM HEPES, 150 mM NaCl, 1 mM TCEP, 0.05% Tween-20, 1% (v/v) (component not given), pH not stated, 25 C; PARP-1 0.078-20 nM; n = 6
PARP-1 full-length [3] = biological target: T1, PARP-1 full-length; assay: SPR; olaparib (10 mM [sic]); SPR (Biacore 8K): 20 mM HEPES, 150 mM NaCl, 1 mM TCEP, 0.05% Tween-20, 1% (v/v) (component not given), pH not stated, 25 C; PARP-1 0.078-20 nM; n = 6
PARP-1 full-length [4] = biological target: T1, PARP-1 full-length; assay: SPR; veliparib (10 mM [sic]); SPR (Biacore 8K): 20 mM HEPES, 150 mM NaCl, 1 mM TCEP, 0.05% Tween-20, 1% (v/v) (component not given), pH not stated, 25 C; PARP-1 0.078-20 nM; n = 6

T1 sequence (P09874 2-1014): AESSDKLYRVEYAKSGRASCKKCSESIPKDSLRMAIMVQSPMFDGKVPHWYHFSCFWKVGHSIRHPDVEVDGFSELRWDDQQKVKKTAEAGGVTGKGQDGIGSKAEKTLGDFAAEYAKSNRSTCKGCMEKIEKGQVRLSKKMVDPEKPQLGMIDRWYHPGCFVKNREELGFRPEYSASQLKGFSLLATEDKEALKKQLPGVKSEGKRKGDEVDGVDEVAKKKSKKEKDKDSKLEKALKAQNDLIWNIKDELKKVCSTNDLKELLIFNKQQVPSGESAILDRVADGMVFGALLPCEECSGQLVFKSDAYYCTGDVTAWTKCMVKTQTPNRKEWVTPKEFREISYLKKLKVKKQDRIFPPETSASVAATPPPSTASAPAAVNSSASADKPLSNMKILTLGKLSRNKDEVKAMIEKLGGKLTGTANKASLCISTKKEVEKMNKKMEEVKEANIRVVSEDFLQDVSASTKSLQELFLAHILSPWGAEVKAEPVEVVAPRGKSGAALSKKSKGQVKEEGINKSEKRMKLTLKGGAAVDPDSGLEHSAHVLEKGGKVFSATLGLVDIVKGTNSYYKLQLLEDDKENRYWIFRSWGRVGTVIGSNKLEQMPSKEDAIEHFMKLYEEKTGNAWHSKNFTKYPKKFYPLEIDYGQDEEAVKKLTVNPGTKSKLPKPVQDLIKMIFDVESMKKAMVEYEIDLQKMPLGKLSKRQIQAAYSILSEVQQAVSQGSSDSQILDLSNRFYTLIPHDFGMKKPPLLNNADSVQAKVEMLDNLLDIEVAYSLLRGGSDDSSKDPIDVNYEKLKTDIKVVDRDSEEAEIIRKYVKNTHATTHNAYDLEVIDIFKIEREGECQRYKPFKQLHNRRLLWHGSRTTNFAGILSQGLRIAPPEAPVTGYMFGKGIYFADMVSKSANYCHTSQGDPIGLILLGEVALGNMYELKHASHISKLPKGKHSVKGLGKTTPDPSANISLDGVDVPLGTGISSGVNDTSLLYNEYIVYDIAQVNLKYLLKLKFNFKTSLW

B1: biotinylated hairpin DNA (dumbbell single-strand break model) (structured_DNA)
DNA: GACAACCCGGCGCTTTTTTTGCGCCGGGTTGTCTGGCCCAGTTCGTTTTTTTCGAACTGGGCCA
modifications: biotin-dT at position 17 (written as T; between S1 and S2)
**Q.** Which Kd (PARP-1 full-length [1]) does the source give for B1 here?
**A.** 2.1 nM

**Q.** And the Kd (PARP-1 full-length [2])?
**A.** 0.13 nM

**Q.** And the Kd (PARP-1 full-length [3])?
**A.** 2.1 nM

**Q.** What about the Kd (PARP-1 full-length [4]) of the same binder?
**A.** 4.2 nM
